# Source: publication doi:10.1101/2021.12.10.472004 (bioRxiv, 2021)
# Legend:
# [1] = target: 20S proteasome (human (endogenous in red blood cells)) (UniProt P25786); test: negative stain electron microscopy
# [2] = target: the molecule itself; test: negative stain electron microscopy
# 20S proteasome (human (endogenous in red blood cells)), sequence (P25786 whole entry, looked up): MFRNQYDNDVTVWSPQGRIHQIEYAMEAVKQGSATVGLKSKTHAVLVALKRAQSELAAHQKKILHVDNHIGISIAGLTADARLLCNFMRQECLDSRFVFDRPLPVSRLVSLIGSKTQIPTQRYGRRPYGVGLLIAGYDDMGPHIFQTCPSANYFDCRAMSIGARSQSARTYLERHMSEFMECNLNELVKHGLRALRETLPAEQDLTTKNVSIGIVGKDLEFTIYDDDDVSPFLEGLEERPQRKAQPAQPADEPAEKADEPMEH
Molecule,percent of the observed proteasomes that were singly-capped 26S [1] [%],stoichiometry N [2]
19S regulatory cap of the proteasome (complex),6,–
"peroxiredoxin PRDX2 (enzyme, human (endogenous in red blood cells), UniProt P32119 1-198, looked up) MASGNARIGKPAPDFKATAVVDGAFKEVKLSDYKGKYVVLFFYPLDFTFVCPTEIIAFSNRAEDFRKLGCEVLGVSVDSQFTHLAWINTPRKEGGLGPLNIPLLADVTRRLSEDYGVLKTDEGIAYRGLFIIDGKGVLRQITVNDLPVGRSVDEALRLVQAFQYTDEHGEVCPAGWKPGSDTIKPNVDDSKEYFSKHN",–,10
